According to patent US20260042834A1 (HBM ALPHA THERAPEUTICS, published 2026):
Residue numbers refer to the chain shown, from its start. “And” between values parts separate entries of the source, which are not always exact repeats. Equal entries are not always repeated. Each block holds one binder with its values, some of them ahead of it.

Tests used:
[1] = biological target: T1, corticotropin-releasing hormone (CRH) peptide (human and mouse, not fully specified); test: cell-based or functional assay
T1 peptide: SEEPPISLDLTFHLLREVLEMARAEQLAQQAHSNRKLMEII

[2] = biological target: T2, biotinylated CRH (human and mouse, not fully specified; biotinylated, position not stated); test: Octet BLI, biotinylated CRH on SA sensor
T2 construct: also called Biotin-CRH; biotin-labeled CRH
T2 peptide: T1 peptide

[3] = biological target: T3, CRH (NT Biotin) (human and mouse, not fully specified; biotin at the N-terminus); test: ELISA, biotin peptide on streptavidin plate
T3 peptide: T1 peptide
Protocol: (§1) Streptavidin (Thermo, Cat: 21125) was diluted in PBS to a concentration of 2 μg/ml. 100 μl of diluted streptavidin was added per well to ELISA microplates, and the plates were incubated overnight at 4° C. […] 100 μL of 3,3′,5,5′-tetramethylbenzidine (TMB) substrate (Biopanda, Cat: TMB-S-003) was added, and the plates were incubated at room temperature for 15 minutes. 100 μL of ELISA stopping solution (Solarbio, Cat #: C1058) was added to terminate the reaction, and the optical density at 450 nm (OD450 nm) was determined by an ELISA plate reader (Molecular Devices, Spectra max 384 plus).

[4] = biological target: T4, CRH (CT Biotin) (human and mouse, C-terminal K-Biotin); test: ELISA, biotin peptide on streptavidin plate
T4 construct: also called Peptide 4 (CRH-Biotin)
T4 peptide: T1 peptide
Protocol: as §1

[5] = biological target: T5, hUCN1 (NT Biotin) (human, UniProt P55089 83-122, biotin at the N-terminus); test: ELISA, biotin peptide on streptavidin plate
T5 construct: also called human UCN1 (NT biotin)
T5 peptide (looked up): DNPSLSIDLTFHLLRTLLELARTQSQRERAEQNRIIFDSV
Protocol: as §1

[6] = biological target: T6, hUCN1 (CT Biotin) (human, UniProt P55089 83-122, biotin at the C-terminus); test: ELISA, biotin peptide on streptavidin plate
T6 construct: also called human UCN1 (CT biotin)
T6 peptide (looked up): T5 peptide (looked up)
Protocol: as §1

[7] = biological target: T7, N-Terminal CRH (human and mouse, C-terminal K-Biotin); test: ELISA, biotin peptide on streptavidin plate
T7 construct: also called N-Ter-CRH (CT-Bion)
T7 peptide: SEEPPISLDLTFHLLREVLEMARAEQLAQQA
Protocol: as §1

[8] = biological target: T2, biotinylated CRH; test: Octet in-tandem, row = 1st mAb; competitor (2nd mAb) PR005660
Protocol: (§2) SA sensors (Fortebio, Cat #18-5019) were hydrated in running buffer for 10 mins.

[9] = biological target: T2, biotinylated CRH; test: Octet in-tandem, row = 1st mAb; competitor (2nd mAb) PR006669
Protocol: as §2

[10] = biological target: T2, biotinylated CRH; test: Octet in-tandem, row = 1st mAb; competitor (2nd mAb) PR301777
Protocol: as §2

[11] = biological target: T2, biotinylated CRH; test: Octet in-tandem, row = 1st mAb; competitor (2nd mAb) PR302334
Protocol: as §2

[12] = biological target: T2, biotinylated CRH; test: Octet in-tandem, row = 1st mAb; competitor (2nd mAb) PR303394
Protocol: as §2

[13] = biological target: T2, biotinylated CRH; test: Octet in-tandem, row = 1st mAb; competitor (2nd mAb) PR302341-34
Protocol: as §2

[14] = biological target: T8, human UCN2 peptide (human, UniProt Q96RP3 72-109, limits assumed, not fully specified; biotin at N- or C-terminus in the ELISA); test: ELISA on streptavidin-captured hUCN2 (NT biotin) and hUCN2 (CT biotin), mAb at 100 nM and 10 nM, OD450
T8 construct: also called hUCN2; hUCN2 (NT Biotin)
T8 peptide (looked up): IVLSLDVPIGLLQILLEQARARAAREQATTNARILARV
Protocol: (§3) Streptavidin (Thermo, Cat: 21125) was diluted in PBS with a concentration of 2 μg/mL. 100 μL of diluted streptavidin was added per well to ELISA microplates, and the plates were incubated overnight at 4° C. Plates were blocked with ELISA blocking solution (containing 2% w/v BSA, 0.05% (v/v) Tween-20, pH 7.4 PBS buffer) at 37° C. for 1 hour, and then incubated with either 1 μg/mL hUCN1 (NT Biotin), hUCN1 (CT Biotin), hUCN2 (NT Biotin), hUCN2 (CT Biotin), hUCN3 (NT Biotin), or hUCN3 (CT Biotin) for 1 hour at 37° C. […] 100 μl of TMB Substrate (Biopanda, Cat: TMB-S-003) was added, and the plates were incubated at room temperature for 15 minutes. 100 μL of ELISA stopping solution (Solarbio, Cat #: C1058) was then added to terminate the reaction, and the OD450 nm was determined by an ELISA plate reader (Molecular Devices, Spectra max 384 plus).

[15] = biological target: T9, human UCN3 peptide (human, UniProt Q969E3 120-157, not fully specified; biotin at N- or C-terminus in the ELISA); test: ELISA on streptavidin-captured hUCN3 (NT biotin) and hUCN3 (CT biotin), mAb at 100 nM and 10 nM, OD450
T9 construct: also called hUCN3; hUCN3 (NT Biotin)
T9 peptide (looked up): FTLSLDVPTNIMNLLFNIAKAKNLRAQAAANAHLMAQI
Protocol: as §3

[16] = biological target: T2, biotinylated CRH; test: competitive ELISA, coated 1st mAb; competitor hIgG1
Protocol: (§4) For epitope binding, a competitive ELISA was performed. Specifically, 1 μg/ml of capture antibody, 100 μl/well, was coated on a 96 well-plate at 4° C. overnight. Plates were blocked with ELISA blocking solution (containing 2% w/v BSA, 0.05% (v/v) Tween-20, pH 7.4 PBS buffer) at 37° C. for 1 hour. […] Subsequently, plates were washed and incubated with Streptavidin-Peroxidase (SIGMA, Cat: 52438-250UG) at 37° C. for 1 hour. 100 μL of 3,3′,5,5′-tetramethylbenzidine (TMB) substrate (Biopanda, Cat: TMB-S-003) was added, and the plates were incubated at room temperature for 15 minutes. 100 μL of ELISA stopping solution (Solarbio, Cat #: C1058) was added to terminate the reaction, and the optical density at 450 nm (OD450 nm) was determined by an ELISA plate reader (Molecular Devices, Spectra max 384 plus).

[17] = biological target: T2, biotinylated CRH; test: competitive ELISA, coated 1st mAb; competitor PR004290
Protocol: as §4

[18] = biological target: T2, biotinylated CRH; test: competitive ELISA, coated 1st mAb; competitor PR005660
Protocol: as §4

[19] = biological target: T2, biotinylated CRH; test: competitive ELISA, coated 1st mAb; competitor PR006148
Protocol: as §4

[20] = biological target: T2, biotinylated CRH; test: competitive ELISA, coated 1st mAb; competitor PR006152
Protocol: as §4

[21] = biological target: T2, biotinylated CRH; test: competitive ELISA, coated 1st mAb; competitor PR301777
Protocol: as §4

[22] = biological target: T2, biotinylated CRH; test: competitive ELISA, coated 1st mAb; competitor PR302050
Protocol: as §4

[23] = biological target: T2, biotinylated CRH; test: competitive ELISA, coated 1st mAb; competitor PR302055
Protocol: as §4

[24] = biological target: T2, biotinylated CRH; test: competitive ELISA, coated 1st mAb; competitor PR302064
Protocol: as §4

[25] = biological target: T2, biotinylated CRH; test: competitive ELISA, coated 1st mAb; competitor PR302069
Protocol: as §4

[26] = biological target: T8, human UCN2 peptide; test: ELISA on streptavidin-captured hUCN2 (NT biotin) and hUCN2 (CT biotin), mAb at 100 nM and 10 nM; axis labelled RLU, scale 0-4
Protocol: as §3

[27] = biological target: T9, human UCN3 peptide; test: ELISA on streptavidin-captured hUCN3 (NT biotin) and hUCN3 (CT biotin), mAb at 100 nM and 10 nM; axis labelled RLU, scale 0-4
Protocol: as §3

CHO-CRE-hCRHR1 0.5 nM CRH IC50 [1]: 1700 pM
Kd [2]: 513 pM
koff [2]: 0.000136 s⁻¹
kon [2]: 266000 M⁻¹ s⁻¹
EC50 [3]: 25 pM
EC50 [4]: 29 pM
EC50 [5]: 126 pM
EC50 [6]: 1880 pM
EC50 [7]: 25 pM
% Inhibition [8]: 76%
% Inhibition [9]: 76%
% Inhibition [10]: 80%
% Inhibition [11]: 65%
% Inhibition [12]: 77%
% Inhibition [13]: 74%
binding result [14]: no binding (tested: 100 nM)
binding result [15]: no binding (tested: 100 nM)
B1: PR302309-8 (antibody, human IgG1, kappa, V domains shown)
VH: QIQLVQSGSELKKPGASVKVSCKASGYTFTNYGMNWVRQAPGQGLEWMGWINTYTGEPIYTDDFKGRFVFSLDTSVSTAYLQISSLKAEDTAVYYCSRSTMITTGGVFAYWGQGTLVTVSS
VL: DVVMTQSPLSLPVTLGQPASISCRSSQTIVHSDGNTYLEWYQQRPGQSPRLLIYKVSNRFSGVPDRFSGSGSGTDFTLKISRVEAEDLGVYYCFQGSHVPWTFGGGTKVEIKR
notes: Humanized variant of PR302309

Kd [2]: < 1 pM
koff [2]: < 1e-07 s⁻¹
kon [2]: 470000 M⁻¹ s⁻¹
% Inhibition [16]: 0%
% Inhibition [17]: 94%
% Inhibition [18]: 94%
% Inhibition [19]: 95%
% Inhibition [20]: 96%
% Inhibition [21]: 94%
% Inhibition [22]: 94%
% Inhibition [23]: 94%
% Inhibition [24]: 95%
% Inhibition [25]: 94%
B2: PR302050 (antibody, human IgG1, kappa, V domains shown)
VH: EMQLVESGGGLVQPGGSLKLSCAASGFTFSNYWMNWVRQASGKGLEWVAEIRLKSNNYATHYAESVKGRFTISRDDSKSTVYLQMNSLKTEDTAVYYCTVGTLVYWGQGTLVTVSS
VL: DIVLTQSPDSLAVSLGERATINCRASQSVSTSTYNYMHWFQQKPGQPPKLLIKFASNLESGVPDRFSGSGSGTDFTLTISSLQAEDTAVYYCQHSWEIPYTFGQGTKLEIKR
notes: Humanized variant of PR301777

% Inhibition [16]: 2%
% Inhibition [17]: 94%
% Inhibition [18]: 94%
% Inhibition [19]: 95%
% Inhibition [20]: 95%
% Inhibition [21]: 94%
% Inhibition [22]: 95%
% Inhibition [23]: 95%
% Inhibition [24]: 95%
% Inhibition [25]: 95%
B3: PR302055 (antibody, human IgG1, kappa, V domains shown)
VH: B2 VH
VL: DIQLTQSPSSLSASVGDRVTITCRASQSVSTSTYNYMHWFQQKPGKAPKLLIKFASNLESGVPSRFSGSGSGTDFTLTISSLQPEDTATYYCQHSWEIPYTFGQGTKLEIKR
notes: Humanized variant of PR301777

CHO-CRE-hCRHR1 0.5 nM CRH IC50 [1]: 531 pM and 664 pM
Kd [2]: < 1 pM
EC50 [3]: 30 pM
EC50 [4]: 26 pM and 23 pM
EC50 [5]: 118 pM and 142 pM
EC50 [6]: 208 pM and 256 pM
EC50 [7]: 22 pM
% Inhibition [16]: 1%
% Inhibition [17]: 93%
% Inhibition [18]: 94%
% Inhibition [19]: 94%
% Inhibition [20]: 94%
% Inhibition [21]: 94%
% Inhibition [22]: 95%
% Inhibition [23]: 95%
% Inhibition [24]: 95%
% Inhibition [25]: 95%
binding result [26]: no binding (tested: 100 nM)
binding result [27]: no binding (tested: 100 nM)
B4: PR302064 (antibody, human IgG1, kappa, V domains shown)
VH: B2 VH with Q13K, K19R, S41P
VL: B2 VL
notes: Humanized variant of PR301777

% Inhibition [16]: 0%
% Inhibition [17]: 93%
% Inhibition [18]: 94%
% Inhibition [19]: 95%
% Inhibition [20]: 94%
% Inhibition [21]: 94%
% Inhibition [22]: 95%
% Inhibition [23]: 95%
% Inhibition [24]: 95%
% Inhibition [25]: 95%
B5: PR302069 (antibody, human IgG1, kappa, V domains shown)
VH: B2 VH with Q13K, K19R, S41P
VL: B3 VL
notes: Humanized variant of PR301777
